Measurements: PMC4734655

Target: recombinant human IL-8 (interleukin-8) (human)
Assay: SPR; Biacore; IL-8 immobilised on a CM5 chip by amine coupling (Fc2), BSA on the reference cell (Fc1); soluble recombinant Mtb proteins as analytes at 2.5, 5, 10 and 20 uM; 22 °C, PBS pH 7.4 with 0.005% P20; flow 5 ul/min; one-to-one model

B1: recombinant M. tuberculosis rAtsG (His-tagged, from pHis-atsG) (enzyme)
chain: MTSERATGQRENLLIVHWHDLGRYLGVYHHPDVYSPRLDRLAAEGILFTRAHATAPLCTPSRGSLFTGRYPQSNGLVGLAHHGWEYRTGVQTLPQLLSESGWYSALFGMQHETSYPKRLGFDEFDVSNSYCEYVVAKAQDWLHNRVPALDGQRFLLTAGFFETHRPYPHERYRPADSAAVELPDYLPDTPEVRQDVAEFYGSIATADEAVGRLLDTLADTGLDASTWVVFVTDHGPAFPRAKSTLYDAGTGIALIIRPPTRRAMAPRVYDELFSGVDLVPTLLDLLRLEVPADVEGVSHAPALLAPDTENAAVRDHVYTAKTYHDSFDPIRAIRTKEYSYIENYAPRPLLDLPWDIQESPAGMAVAPLVKAPRPQRELYDLRADPTETNNLLAGDDSTQGVAAIAADLAVRLHDWRQRTADVIPSDFAGSRIAERYTETYLRIHRKTPTGRSAIAADRGIDEHCS
B1 gave a Kd of 6.83 µM.

B2: recombinant M. tuberculosis rGlmU (His-tagged, from pHis-glmU) (enzyme)
chain: MTFPGDTAVLVLAAGPGTRMRSDTPKVLHTLAGRSMLSHVLHAIAKLAPQRLIVVLGHDHQRIAPLVGELADTLGRTIDVALQDRPLGTGHAVLCGLSALPDDYAGNVVVTSGDTPLLDADTLADLIATHRAVSAAVTVLTTTLDDPFGYGRILRTQDHEVMAIVEQTDATPSQREIREVNAGVYAFDIAALRSALSRLSSNNAQQELYLTDVIAILRSDGQTVHASHVDDSALVAGVNNRVQLAELASELNRRVVAAHQLAGVTVVDPATTWIDVDVTIGRDTVIHPGTQLLGRTQIGGRCVVGPDTTLTDVAVGDGASVVRTHGSSSSIGDGAAVGPFTYLRPGTALGADGKLGAFVEVKNSTIGTGTKVPHLTYVGDADIGEYSNIGASSVFVNYDGTSKRRTTVGSHVRTGSDTMFVAPVTIGDGAYTGAGTVVREDVPPGALAVSAGPQRNIENWVQRKRPGSPAAQASKRASEMACQQPTQPPDADQTP
For B2, the Kd was 5.24 µM.
